Experimental data taken from PMC10786891, “Massively parallel profiling of RNA-targeting CRISPR-Cas13d”.
Residue numbers refer to the chain shown, from its start. In names and notes the source's numbering stands.

T1: EsCas13d, nuclease-dead (Eubacterium siraeum, UniProt B0MS50, R295A;H300A;R849A;H854A)
T1 sequence: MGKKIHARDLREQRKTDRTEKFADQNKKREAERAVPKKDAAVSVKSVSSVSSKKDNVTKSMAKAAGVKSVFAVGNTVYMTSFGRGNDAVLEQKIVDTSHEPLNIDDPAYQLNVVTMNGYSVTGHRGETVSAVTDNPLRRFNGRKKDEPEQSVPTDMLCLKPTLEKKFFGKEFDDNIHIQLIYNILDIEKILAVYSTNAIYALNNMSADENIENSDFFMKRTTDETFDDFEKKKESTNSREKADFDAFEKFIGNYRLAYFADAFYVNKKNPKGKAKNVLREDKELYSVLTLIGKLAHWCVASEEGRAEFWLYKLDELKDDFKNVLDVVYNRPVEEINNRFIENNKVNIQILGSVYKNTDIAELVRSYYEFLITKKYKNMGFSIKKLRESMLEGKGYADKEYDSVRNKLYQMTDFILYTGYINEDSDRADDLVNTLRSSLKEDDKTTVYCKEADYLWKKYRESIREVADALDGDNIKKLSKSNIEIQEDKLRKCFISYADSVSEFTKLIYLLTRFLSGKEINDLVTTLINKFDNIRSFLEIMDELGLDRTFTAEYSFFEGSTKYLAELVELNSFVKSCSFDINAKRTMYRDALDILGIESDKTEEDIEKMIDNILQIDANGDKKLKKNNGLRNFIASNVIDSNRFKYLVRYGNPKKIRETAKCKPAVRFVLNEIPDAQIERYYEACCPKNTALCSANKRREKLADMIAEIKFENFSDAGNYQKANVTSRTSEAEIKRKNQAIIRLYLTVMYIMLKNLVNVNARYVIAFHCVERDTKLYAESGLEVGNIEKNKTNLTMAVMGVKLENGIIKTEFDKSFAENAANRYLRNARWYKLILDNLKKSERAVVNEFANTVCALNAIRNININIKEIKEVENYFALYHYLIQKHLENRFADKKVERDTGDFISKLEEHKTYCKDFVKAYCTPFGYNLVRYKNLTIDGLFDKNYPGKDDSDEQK

B1: target 2 MT 5'PFS UAU 3'PFS AGA (mixed)
RNA 1: CACCCGUGCAAAAUUGCAGGGGUCUAAAACCUUCUCCAAAUUGUUUCAUCCU
RNA 2: GGGAAUGGAUCCACAUCUACGAAUUCUAUAGGAUGAAACAAUUUGGAGAAGAGAAGAUCGGAAGAGCACACGU
B2: target 2 MT 5'PFS UAU 3'PFS AGC (mixed)
RNA 1: B1 RNA 1
RNA 2: B1 RNA 2 with A54C
B3: target 2 MT 5'PFS UAU 3'PFS CGU (mixed)
RNA 1: B1 RNA 1
RNA 2: B1 RNA 2 with A52C, A54U
B4: target 1 A1U,C7G (mixed)
RNA 1: CACCCGUGCAAAAAUGCAGGGGUCUAAAACUGAGCGGAUAACCUCUCUAUGG
RNA 2: GGGAAUGGAUCCACAUCUACGAAUUCGUACCAUAGAGAGGUUAUGCGCUCUCCGAGAUCGGAAGAGCACACGU
B5: target 2 MT 5'PFS UAU 3'PFS AGG (mixed)
RNA 1: B1 RNA 1
RNA 2: B1 RNA 2 with A54G
B6: target 2 MT 5'PFS GCA 3'PFS UGA (mixed)
RNA 1: B1 RNA 1
RNA 2: B1 RNA 2 with U27G, A28C, U29A, A52U
B7: target 2 MT 5'PFS GCA 3'PFS UGC (mixed)
RNA 1: B1 RNA 1
RNA 2: B1 RNA 2 with U27G, A28C, U29A, A52U, A54C
B8: target 2 MT 5'PFS UAU 3'PFS CGG (mixed)
RNA 1: B1 RNA 1
RNA 2: B1 RNA 2 with A52C, A54G
B9: target 2 MT 5'PFS UAU 3'PFS CGC (mixed)
RNA 1: B1 RNA 1
RNA 2: B1 RNA 2 with A52C, A54C
B10: target 2 MT 5'PFS UAU 3'PFS AGU (mixed)
RNA 1: B1 RNA 1
RNA 2: B1 RNA 2 with A54U
B11: target 2 MT 5'PFS UAU 3'PFS CGA (mixed)
RNA 1: B1 RNA 1
RNA 2: B1 RNA 2 with A52C
B12: target 2 MT 5'PFS ACG 3'PFS CGC (mixed)
RNA 1: B1 RNA 1
RNA 2: B1 RNA 2 with U27A, A28C, U29G, A52C, A54C
B13: target 2 MT 5'PFS ACG 3'PFS CGA (mixed)
RNA 1: B1 RNA 1
RNA 2: B1 RNA 2 with U27A, A28C, U29G, A52C
B14: target 2 MT 5'PFS GUG 3'PFS CAU (mixed)
RNA 1: B1 RNA 1
RNA 2: B1 RNA 2 with U27G, A28U, U29G, A52C, G53A, A54U
B15: target 1 insA 3' of 4,insG 3' of 4 (mixed)
RNA 1: B4 RNA 1
RNA 2: GGGAAUGGAUCCACAUCUACGAAUUCGUACCAUAGAGAGGUUAUCCGCAGUCACCGAGAUCGGAAGAGCACACGU
B16: target 1 insA 3' of 21,insC 3' of 11 (mixed)
RNA 1: B4 RNA 1
RNA 2: GGGAAUGGAUCCACAUCUACGAAUUCGUACCAAUAGAGAGGUCUAUCCGCUCACCGAGAUCGGAAGAGCACACGU
B17: target 2 MT 5'PFS CUU 3'PFS UGU (mixed)
RNA 1: B1 RNA 1
RNA 2: B1 RNA 2 with U27C, A28U, A52U, A54U
B18: target 2 MT 5'PFS UAA 3'PFS ACG (mixed)
RNA 1: B1 RNA 1
RNA 2: B1 RNA 2 with U29A, G53C, A54G
B19: target 2 MT 5'PFS UAA 3'PFS ACC (mixed)
RNA 1: B1 RNA 1
RNA 2: B1 RNA 2 with U29A, G53C, A54C
B20: target 2 MT 5'PFS UAA 3'PFS ACA (mixed)
RNA 1: B1 RNA 1
RNA 2: B1 RNA 2 with U29A, G53C
B21: target 2 MT 5'PFS GCC 3'PFS UUG (mixed)
RNA 1: B1 RNA 1
RNA 2: B1 RNA 2 with U27G, A28C, U29C, A52U, G53U, A54G
B22: target 2 MT 5'PFS ACU 3'PFS CAG (mixed)
RNA 1: B1 RNA 1
RNA 2: B1 RNA 2 with U27A, A28C, A52C, G53A, A54G
B23: target 2 MT 5'PFS GCC 3'PFS UUC (mixed)
RNA 1: B1 RNA 1
RNA 2: B1 RNA 2 with U27G, A28C, U29C, A52U, G53U, A54C
B24: target 2 MT 5'PFS ACU 3'PFS CAA (mixed)
RNA 1: B1 RNA 1
RNA 2: B1 RNA 2 with U27A, A28C, A52C, G53A
B25: target 2 MT 5'PFS GCC 3'PFS UUA (mixed)
RNA 1: B1 RNA 1
RNA 2: B1 RNA 2 with U27G, A28C, U29C, A52U, G53U
B26: target 2 MT 5'PFS ACU 3'PFS CAC (mixed)
RNA 1: B1 RNA 1
RNA 2: B1 RNA 2 with U27A, A28C, A52C, G53A, A54C
B27: target 1 C6G,A18U (mixed)
RNA 1: B4 RNA 1
RNA 2: B4 RNA 2 with A34U, G45C, C46G, U51A
B28: target 2 MT 5'PFS UAA 3'PFS ACU (mixed)
RNA 1: B1 RNA 1
RNA 2: B1 RNA 2 with U29A, G53C, A54U
B29: target 2 MT 5'PFS CUU 3'PFS UGA (mixed)
RNA 1: B1 RNA 1
RNA 2: B1 RNA 2 with U27C, A28U, A52U
B30: target 2 MT 5'PFS CUU 3'PFS UGC (mixed)
RNA 1: B1 RNA 1
RNA 2: B1 RNA 2 with U27C, A28U, A52U, A54C
B31: target 2 MT 5'PFS ACU 3'PFS CAU (mixed)
RNA 1: B1 RNA 1
RNA 2: B1 RNA 2 with U27A, A28C, A52C, G53A, A54U
B32: target 2 MT 5'PFS GCC 3'PFS UUU (mixed)
RNA 1: B1 RNA 1
RNA 2: B1 RNA 2 with U27G, A28C, U29C, A52U, G53U, A54U

molecular target: T1, EsCas13d, nuclease-dead; test: crRNA (strand 1, pre-loaded); Mg2+; 40 mM Tris-HCl pH 7.5, 150 mM NaCl, 6 mM MgCl2, 1 mM DTT, 0.1% Tween-20, 0.2 mg/ml BSA; 25 C; 10 min per concentration, then washed; details: tags: His6-TwinStrep-SUMO cleaved; N-terminal SNAP kept (SNAP-Surface 488); label: 3' end held by stalled T7 RNA polymerase

Row | Binder | Kd [µM]
1 | B1 | 0.0211 ± 0.0027
2 | B2 | 0.021 ± 0.0024
3 | B3 | 0.0156 ± 0.0018
4 | B4 | 0.0099 ± 0.0008
5 | B5 | 0.0281 ± 0.0033
6 | B6 | 0.013 ± 0.004
7 | B7 | 0.0127 ± 0.0023
8 | B8 | 0.052 ± 0.011
9 | B9 | 0.075 ± 0.013
10 | B10 | 0.0152 ± 0.0016
11 | B11 | 0.027 ± 0.0019
12 | B12 | 0.0082 ± 0.0011
13 | B13 | 0.0085 ± 0.0021
14 | B14 | 0.0092 ± 0.0008
15 | B15 | 0.00532 ± 0.00026
16 | B16 | ~0.08

Row | Binder | Kd [µM]
17 | B17 | 0.00426 ± 0.0003
18 | B18 | 0.0088 ± 0.0021
19 | B19 | 0.024 ± 0.009
20 | B20 | 0.006 ± 0.0012
21 | B21 | 0.0153 ± 0.0021
22 | B22 | 0.0045 ± 0.0005
23 | B23 | 0.027 ± 0.007
24 | B24 | 0.0037 ± 0.0008
25 | B25 | 0.025 ± 0.007
26 | B26 | 0.0041 ± 0.0006
27 | B27 | 0.029 ± 0.004
28 | B28 | 0.009 ± 0.0014
29 | B29 | 0.0065 ± 0.002
30 | B30 | 0.0045 ± 0.0009
31 | B31 | 0.0031 ± 0.0005
32 | B32 | 0.041 ± 0.011
